We go through one molecule from patent US20160303225A1 (HENRY M JACKSON FOUNDATION FOR THE ADVANCEMENT OF MILITARY …, published 2016).

This assay addresses T1, modified HCMV gB (homotrimeric complex of modified human cytomegalovirus glycoprotein B) (human cytomegalovirus (HCMV), UniProt F5HB53 25-750).
T1 construct: It runs as a 360 kDa homotrimer under native or partially reducing conditions and as a 120 kDa monomer under fully reducing or denaturing conditions; also called trimeric HCMV gB; HCMV trimeric gB
Kind of assay: purified proteins mixed 1:1 (molecular ratio) and incubated at room temperature for 2 hours; Western blot under non-reducing conditions. For orientation: In western blotting, separated proteins are transferred to a membrane and probed.

B1: HCMV gH/gL fusion protein (other)
chain: DATVSVAPTVAEKVPAECPELTRRCLLGEVFQGDKYESWLRPLVNVTRRDGPLSQLIRYRPVTPEAANSVLLDDAFLDTLALLYNNPDQLRALLTLLSSDTAPRWMTVMRGYSECGDGSPAVYTCVDDLCRGYDLTRLSYGRSIFTEHVLGFELVPPSLFNVVVAIRNEATRTNRAVRLPVSTAAAPEGITLFYGLYNAVKEFCLRHQLDPPLLRHLDKYYAGLPPELKQTRVNLPAHSRYGPQAVDARGGGGSGGGGSGGGGSYGAEAISEPLDKAFHLLLNTYGRPIRFLRENTTQCTYNSSLRNSTVVRENAISFNFFQSYNQYYVFHMPRCLFAGPLAEQFLNQVDLTETLERYQQRLNTYALVSKDLASYRSFSQQLKAQDSLGEQPTTVPPPIDLSIPHVWMPPQTTPHGWTESHTTSGLHRPHFNQTCILFDGHDLLFSTVTPCLHQGFYLIDELRYVKITLTEDFFVVTVSIDDDTPMLLIFGHLPRVLFKAPYQRDNFILRQTEKHELLVLVKKDQLNRHSYLKDPDFLDAALDFNYLDLSALLRNSFHRYAVDVLKSGRCQMLDRRTVEMAFAYALALFAAARQEEAGAQVSVPRALDRQAALLQIQEFMITCLSQTPPRTTLLLYPTAVDLAKRALWTPNQITDITSLVRLVYILSKQNQQHLIPQWALRQIADFALKLHKTHLASFLSAFARQELYLMGSLVHSMLVHTTERREIFIVETGLCSLAELSHFTQLLAHPHHEYLSDLYTPCSSSGRRDHSLERLTRLFPDATVPTTVPAALSILSTMQPSTLETFPDLFCLPLGESFSALTVSEHVSYVVTNQYLIKGISYPVSTTVVGQSLIITQTDSQTKCELTRNMHTTHSITAALNISLENCAFCQSALLEYDDTQGVINIMYMHDSDDVLFALDPYNEVVVSSPRTHYLMLLKNGTVLEVTDVVVDATDSRLHHHHHH
notes: It was expressed in CHO DG44 cells; also called monomeric gH/gL; gH/gL heterodimer
B1: the binding result was “binds”.
